Results from paper PMC11796124.

Target: DP71L-Flag (Flag-tagged ASFV DP71L), expressed in HEK293T cells
Settings: parent: est. 0.52; read off a plot

| Substance | response (Relative IntDEN to β-actin) |
| --- | --- |
| STING-Strep (Strep-tagged STING) (from UniProt Q86WV6) L374A | 0.14 |
| STING-Strep (Strep-tagged STING) (from UniProt Q86WV6) R375A | 0.04 |
